According to article PMC3443293:

Columns and labels:
Test in all cases: AUC
[1] = biological target: human nectin-3 ectodomain (D1-D3) (human) (UniProt Q9NQS3)
[2] = biological target: human nectin-1 ectodomain (D1-D3) (human) (UniProt Q15223)
[3] = biological target: mouse nectin-3 ectodomain (D1-D3 with part of the stalk) (mouse) (UniProt Q9JLB9)

Sequence of human nectin-3 ectodomain (D1-D3) (Q9NQS3 58-359): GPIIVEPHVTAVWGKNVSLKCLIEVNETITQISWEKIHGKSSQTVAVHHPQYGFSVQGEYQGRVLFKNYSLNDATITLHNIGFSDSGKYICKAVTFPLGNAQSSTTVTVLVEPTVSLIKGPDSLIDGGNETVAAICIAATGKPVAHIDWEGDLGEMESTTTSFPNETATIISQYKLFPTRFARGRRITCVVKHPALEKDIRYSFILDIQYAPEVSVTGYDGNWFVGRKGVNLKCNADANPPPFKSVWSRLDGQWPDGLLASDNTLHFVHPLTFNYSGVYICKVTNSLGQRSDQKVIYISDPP
Sequence of mouse nectin-3 ectodomain (D1-D3 with part of the stalk) (Q9JLB9 58-401): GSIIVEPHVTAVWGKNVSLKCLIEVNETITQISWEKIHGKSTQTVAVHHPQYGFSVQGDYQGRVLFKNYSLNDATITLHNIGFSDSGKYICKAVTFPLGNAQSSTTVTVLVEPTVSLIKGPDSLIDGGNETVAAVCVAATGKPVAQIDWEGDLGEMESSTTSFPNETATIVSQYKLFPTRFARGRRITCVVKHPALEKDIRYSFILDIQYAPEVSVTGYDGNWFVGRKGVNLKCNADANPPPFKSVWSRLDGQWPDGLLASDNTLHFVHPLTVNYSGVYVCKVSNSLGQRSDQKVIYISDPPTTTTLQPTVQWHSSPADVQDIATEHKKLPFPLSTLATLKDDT
Sequence of human nectin-1 ectodomain (D1-D3) (human) (Q15223 31-337): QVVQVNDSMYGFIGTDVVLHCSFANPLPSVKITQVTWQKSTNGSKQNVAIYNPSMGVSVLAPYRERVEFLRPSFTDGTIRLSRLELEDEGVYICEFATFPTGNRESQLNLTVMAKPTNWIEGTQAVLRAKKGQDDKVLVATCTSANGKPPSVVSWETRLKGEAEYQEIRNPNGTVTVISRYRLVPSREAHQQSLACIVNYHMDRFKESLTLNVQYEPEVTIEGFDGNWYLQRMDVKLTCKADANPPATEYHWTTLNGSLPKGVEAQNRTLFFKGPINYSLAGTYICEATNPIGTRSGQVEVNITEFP

Row | Kd [3] | stoichiometry N [3] | Substance | Kd [1] | stoichiometry N [1] | stoichiometry N [2]
1 | – | – | human nectin-3 ectodomain (D1-D3) (from UniProt Q9NQS3 58-359) (domain or fragment) | 228 µM | 2 | 1
2 | 122 µM | 2 | mouse nectin-3 ectodomain (D1-D3 with part of the stalk) (from UniProt Q9JLB9 58-401) (domain or fragment) | – | – | –
